# Measurements as given in article doi:10.1101/2023.03.10.531533 (bioRxiv, 2023).
# B1: VHH R3DC23 (VHH)
# VHH: QVQLQESGGGLVQAGDSLTLSCAVSGRIFSTYTMGWFRQAPGKEREFVAAVRWGAGTIYYADSMKGRFTISRDSAKNTVDLQMNSTKPEDTAVYYCGAAYVSKANYGSLWYQDSRRYDYWGQGTQVTVSS
# Columns and labels:
# [1] = biological target: HR2 protein, residues H1159-K1211 of the SARS-CoV-2 spike (SARS-CoV-2, UniProt P0DTC2); assay: crystal structure
# [2] = biological target: recombinant SARS-CoV-1 spike protein (SARS-CoV-1, isolate , UniProt P59594, stabilised); assay: ELISA
# [3] = biological target: mouse Fc-tagged SARS-CoV-2 RBD (SARS-CoV-2, Wuhan-Hu-1 (assumed from …, UniProt P0DTC2)); assay: ELISA
binder,measurement,setting,value
B1,binding result,[1],binds
same,binding result,[2],binds
same,binding result,[3],no binding
